This note sets out measurements from patent US20100061996A1.

What all share (experiment): cell-based or functional assay
Assay [1] deals with pro-uPA (pro-urokinase-type plasminogen activator, single-chain zymogen form of uPA) (UniProt P00749).
Assay [2] addresses full-length hepsin on the surface of LnCaP-34 cells (transfected full-length hepsin with C-terminal Flag tag plus endogenous hepsin) (human) (UniProt P05981).
Assay [3] deals with endogenous full-length hepsin on the surface of LnCaP-17 cells (human) (UniProt P05981).
Chain of endogenous full-length hepsin on the surface of LnCaP-17 cells (human) (P05981 whole entry): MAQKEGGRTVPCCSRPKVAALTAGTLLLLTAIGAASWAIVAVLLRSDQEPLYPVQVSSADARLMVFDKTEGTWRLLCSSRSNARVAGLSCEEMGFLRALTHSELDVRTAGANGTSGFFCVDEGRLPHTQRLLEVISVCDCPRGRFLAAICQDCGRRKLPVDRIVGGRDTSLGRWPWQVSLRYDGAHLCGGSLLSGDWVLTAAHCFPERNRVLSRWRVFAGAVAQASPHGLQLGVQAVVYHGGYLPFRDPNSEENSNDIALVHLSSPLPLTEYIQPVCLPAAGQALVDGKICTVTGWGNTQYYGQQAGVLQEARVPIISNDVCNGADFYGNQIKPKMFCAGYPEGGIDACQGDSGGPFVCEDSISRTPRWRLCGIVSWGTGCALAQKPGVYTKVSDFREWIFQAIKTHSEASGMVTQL

Chain of full-length hepsin on the surface of LnCaP-34 cells (transfected full-length hepsin with C-terminal Flag tag plus endogenous hepsin) (human) (P05981 whole entry): as above

Regarding “endogenous full-length hepsin on the surface of LnCaP-17 cells (from UniProt P05981 1-417) (enzyme)”, in assay [1], the Rate of pro-uPA activation per 10^6 cells, LnCaP-17, control stood at 2.4 nM uPA hr^-1.

In assay [1], “full-length hepsin on the surface of LnCaP-34 cells (transfected full-length hepsin with C-terminal Flag tag plus endogenous hepsin) (from UniProt P05981 1-417) (enzyme)” came in with a Rate of pro-uPA activation per 10^6 cells, LnCaP-34, control of 6.6 nM uPA hr^-1.

For “KD1, Kunitz domain-1 derived from HAI-1B (from UniProt O43278 246-303)”, the Rate of pro-uPA activation per 10^6 cells, LnCaP-34, with 1 uM KD1 in assay [2] is 0.2 nM uPA hr^-1. Moreover, the Rate of pro-uPA activation per 10^6 cells, LnCaP-17, with 1 uM KD1 in assay [3] is 0.2 nM uPA hr^-1.
